B1: RSA: purified rat serum albumin, unmodified (protein, UniProt P02770 25-608, looked up)
Albumin: EAHKSEIAHRFKDLGEQHFKGLVLIAFSQYLQKCPYEEHIKLVQEVTDFAKTCVADENAENCDKSIHTLFGDKLCAIPKLRDNYGELADCCAKQEPERNECFLQHKDDNPNLPPFQRPEAEAMCTSFQENPTSFLGHYLHEVARRHPYFYAPELLYYAEKYNEVLTQCCTESDKAACLTPKLDAVKEKALVAAVRQRMKCSSMQRFGERAFKAWAVARMSQRFPNAEFAEITKLATDVTKINKECCHGDLLECADDRAELAKYMCENQATISSKLQACCDKPVLQKSQCLAEIEHDNIPADLPSIAADFVEDKEVCKNYAEAKDVFLGTFLYEYSRRHPDYSVSLLLRLAKKYEATLEKCCAEGDPPACYGTVLAEFQPLVEEPKNLVKTNCELYEKLGEYGFQNAVLVRYTQKAPQVSTPTLVEAARNLGRVGTKCCTLPEAQRLPCVEDYLSAILNRLCVLHEKTPVSEKVTKCCSGSLVERRPCFSALTVDETYVPKEFKAETFTFHSDICTLPDKEKQIKKQTALAELVKHKPKATEDQLKTVMGDFAQFVDKCCKAADKDNCFATEGPNLVARSKEALA
B2: NaBH4-reduced: Amadori-RSA reduced with NaBH4 (protein, UniProt P02770 25-608, looked up)
Albumin: B1 Albumin
modifications: ribose-glycated, NaBH4-reduced

Experiments:
[1] = test system: Sprague-Dawley rats, glomerular changes; assay type: in vivo, rat; conditions: for Alcian Blue pH 1.0, scoring of glomerular staining (sulfated glycosaminoglycans) / Alcian Blue pH 2.5, scoring of glomerular staining (acidic glycosaminoglycans) / HS core protein (Ab BL-31), scoring of glomerular staining: 6 weeks, average with standard error; for Alcian Blue pH 1.0, scoring of glomerular staining (sulfated glycosaminoglycans) / Alcian Blue pH 2.5, scoring of glomerular staining (acidic glycosaminoglycans) / HS core protein (Ab BL-31), scoring of glomerular staining / Creat C-2wk / Creat C-6wk: n = 4; for Creat C-2wk: creatinine clearance at 2 weeks; for Creat C-6wk: creatinine clearance at 6 weeks; for average glomerular volume / decrease in heparan sulfate (HS) side-chain staining relative to controls / glomerular albumin deposition / cross-linking relative to controls / immunofluorescent glomerular staining for Heparan Sulfate Proteoglycan Core protein / immunofluorescent glomerular staining for Heparan Sulfate Proteoglycan side-chain / immunofluorescent glomerular staining for RSA / increase in glomerular volume (GV) relative to controls / Alcian blue pH 1.0 glomerular staining versus controls / increase in acidic glycosaminoglycans, Alcian Blue pH 2.5 staining: rat, in vivo
Method: Male Sprague-Dawley rats (Sasco, 100 g) were used. After a 1 week adaptation period, rats were placed in metabolic cages to obtain a 24 hour urine specimen for 2 days before administration of injections. Rats were then divided into experimental and control groups and given tail vein injections with either saline, unmodified RSA (50 mg/kg), Amadori-RSA (50 mg/kg), NaBH4-reduced Amadori-RSA (50 mg/kg), or AGE-RSA (50 mg/kg).
Rats injected with Amadori-RSA and AGE-RSA were then either left untreated, or further treated by the administration of either aminoguanidine (AG; 25 mg/kg), pyridoxamine (PM; 25 mg/kg), or a combination of AG and PM (10 mg/kg each) through the drinking water. Body weight and water intake of the rats were monitored weekly in order to adjust dosages. At the conclusion of the experimental study the rats were placed in metabolic cages to obtain 24 hour urine specimen for 2 days prior to sacrificing the animals.
After perfusion with saline, kidney sections were fixed in ice-cold 10% neutral buffered formalin. Paraffin-embedded tissue sections from all rat groups (n=4 per group) were processed for staining with Harris' alum hematoxylin and eosin (H&E), perodic acid/Schiff reagent (PAS), and alcian blue (pH 1.0 and pH 2.5) stains for histological examination. The alcian blue sections were scored by two investigators in a blinded fashion.
Parrafin-embedded sections were deparaffinized and then blocked with 10% goat serum in PBS for 30 min at room temperature. […] The sections were then rinsed for 30 min with PBS in the dark, mounted in aqueous mounting media for immunocytochemistry (Biomeda), and cover slipped. Sections were scored in a blinded fashion. Kidney sections were evaluated by the number and intensity of glomerular staining in 5 regions around the periphery of the kidney. Scores were normalized for the immunofluorescent score per 100 glomeruli with a scoring system of 0-3.
All animals studies were carried out in conformance with institutional guidelines for animal research protocols. Male Sprague-Dawley 100 g rats (Sasco Co., Omaha Nebr.) were used in these studies. After a 1 week adaptation period, rats were placed in metabolic cages for 2 days to get two 24 hour urine specimens before starting treatment. Rats were then given daily single tail vein injections for 6 weeks according to the following treatment groups: saline, unmodified RSA (50 mg/kg), Amadori-RSA (50 mg/kg), NaBH4-reduced Amadori-RSA (50 mg/kg), and AGE-RSA (50 mg/kg). Groups of rats injected with Amadori-RSA or AGE-RSA were also administered aminoguanidine (25 mg/kg/day), pyridoxamine (25 mg/kg/day), a combination of the two (10 mg/kg/day each), or with nothing added to the drinking water. Body weight and water intake of the rat were monitored weekly in order to adjust dosages. At the conclusion of the study, the rats were placed in metabolic cages for two days to get two 24 hour urine specimens before sacrificing the animals.
Total protein in urine was determined by Bio-Rad assay. Albumin in urine was determined by competitive ELISA using rabbit anti-rat serum albumin (Cappell) as primary antibody (1:2000) and goat anti-rabbit IgG (Sigma) as a secondary antibody (1:2000). Urine was tested with Multistix 8 SG (Miles) for glucose, ketone, specific gravity, blood, pH, protein, nitrite and leukocytes. Creatinine measurements were performed with a Beckman creatinine analyzer II. Intracardiac blood samples were collected before termination and were used in the determination of creatinine clearance, blood glucose (glucose oxidase, Sigma), fructosamine (nitroblue tetrazolium, Sigma), and glycated Hb (Glycotest II analytical boronate columns, Pierce).
After perfusion with saline, kidney sections were fixed in ice-cold 10% neutral buffered formalin. […]

[2] = test system: post-Amadori AGE formation, RNase Amadori intermediate; assay: Interrupted (post-Amadori) ribose glycation assay, RNase; assay type: biochemical, bovine; conditions: up to 50 mM; protein not stated (FIG. 21)
Method: ELISA detection of AGE products. The general method of Engvall (1981, Methods Enzymol. 70:419-439) was used to perform the ELISA. Typically, glycated protein samples were diluted to approximately 1.5 ug/ml in 0.1 M sodium carbonate buffer of pH 9.5 to 9.7. The protein was coated overnight at room temperature onto 96-well polystyrene plates by pippetting 200 ul of the protein solution in each well (0.3 ug/well). After coating, the protein was washed from the wells with a saline solution containing 0.05% Tween-20. The wells were then blocked with 200 ul of 1% casein in carbonate buffer for 2 h at 37° C. followed by washing. Rabbit anti-AGE antibodies were diluted at a titer of about 1:350 in incubation buffer, and incubated for 1 h at 37° C., followed by washing. In order to minimize background readings, antibodies R479 used to detect glycated RNase were raised against glycated BSA, and antibodies R618 used to detect glycated BSA and glycated Hb were raised against glycated RNase. An alkaline phosphatase-conjugated antibody to rabbit IgG was then added as the secondary antibody at a titer of 1:2000 or 1:2500 (depending on lot) and incubated for 1 h at 37° C., followed by washing. The p-nitrophenylphosphate substrate solution was then added (200 ul/well) to the plates, with the absorbance of the released p-nitrophenolate being monitored at 410 nm with a Dynatech MR 4000 microplate reader.
Glycation Modifications Modification with ribose or glucose was generally done at 37° C. in 0.4 M phosphate buffer of pH 7.5 containing 0.02% sodium azide. The high buffer concentration was always used with 0.5 M ribose modifications. The solutions were kept in capped tubes and opened only to remove timed aliquots that were immediately frozen for later carrying out the various analyses. “Interrupted glycation” experiments were carried out by first incubating protein with the ribose at 37° C. for 8 or 24 h, followed by immediate and extensive dialysis against frequent cold buffer changes at 4° C. The samples were then reincubated by quickly warming to 37° C. in the absence of external ribose. Aliquots were taken and frozen at various intervals for later analysis. Due to the low molecular weight of RNase, protein concentrations were remeasured after dialysis even when low molecular weight cut-off dialysis tubing was used. An alternative procedure was also devised (see below) in which interruption was achieved by simple 100-fold dilution from reaction mixtures containing 0.5 M ribose. Protein concentrations were estimated from UV spectra. The difference in molar extinction between the peak (278 nm) and trough (250 nm) was used for RNase concentration determinations in order to compensate for the general increase in UV absorbance that accompanies glycation. Time-dependent UV-difference spectral studies were carried out to characterize the glycation contributions of the UV spectrum. […]
Glycation was first carried out by incubating protein (10 mg/ml) with 0.5 M ribose at 37° C. in 0.4 M phosphate buffer at pH 7.5 containing 0.2% sodium azide for 24 h in the absence of inhibitors. Glycation was then interrupted to remove excess and reversibly bound (Schiff base) sugar by extensive dialysis against frequent cold buffer changes at 4° C.

Molecule	Alcian Blue pH 1.0, scoring of glomerular staining (sulfated glycosaminoglycans) [1]	Alcian Blue pH 2.5, scoring of glomerular staining (acidic glycosaminoglycans) [1]	HS core protein (Ab BL-31), scoring of glomerular staining [1]	Creat C-2wk [1]	Creat C-6wk [1]	average glomerular volume [1]	decrease in heparan sulfate (HS) side-chain staining relative to controls [1] [%]	glomerular albumin deposition / cross-linking relative to controls [1]	immunofluorescent glomerular staining for Heparan Sulfate Proteoglycan Core protein [1]	immunofluorescent glomerular staining for Heparan Sulfate Proteoglycan side-chain [1]	immunofluorescent glomerular staining for RSA [1]	increase in glomerular volume (GV) relative to controls [1] [%]	Alcian blue pH 1.0 glomerular staining versus controls [1]	increase in acidic glycosaminoglycans, Alcian Blue pH 2.5 staining [1]	inhibition of post-Amadori AGE formation [2]
AGE-RSA: Amadori-RSA re-incubated in the absence of sugar for 2-3 days at 37° C.	1.25 ± 0.14	2.44± 0.21	238 ± 10	0.56 ± 0.04 ml/(min*100g)	0.86 ± 0.11 ml/(min*100g)	significant increase in average glomeruli volume	50	four-fold increase	slightly reduced staining	highly reduced staining	elevated staining	30	significantly decreased	50-60%	–
Amadori-RSA: rat serum albumin incubated with 0.5 M ribose for 12 hours, then dialyzed; negative for antigenic AGEs	2.00 ± 0.41	2.12 ± 0.12	235 ± 12	1.02 ± 0.10 ml/(min*100g)	0.60 ± 0.10 ml/(min*100g)	significant increase in average glomeruli volume	25	not different from the controls	slightly reduced staining	highly reduced staining	elevated staining	35	no significant difference	50-60%	–
CC(=O)N[C@@H](CCCCN)C(=O)O [N^60 -acetyl-L-lysine, N^α-acetyl-L-lysine]	–	–	–	–	–	–	–	–	–	–	–	–	–	–	failed to exhibit any significant inhibition of AGE formation
B1	2.75 ± 0.14	1.38 ± 0.24	226 ± 10	0.86 ± 0.16 ml/(min*100g)	0.70 ± 0.02 ml/(min*100g)	–	–	–	–	–	–	–	–	–	–
B2	–	1.81 ± 0.47	203 ± 14	–	0.86 ± 0.07 ml/(min*100g)	–	–	–	–	–	–	–	–	–	–
